US20060073508A1 (published 2006)

Target: GRK2 (βARK1)
Assay: cell-based or functional assay

B1: hemagglutinin epitope-tagged wild-type human alpha-2B adrenergic receptor (receptor)
chain: YPYDVPDYAMDHQDPYSVQATAAIAAAITFLILFTIFGNALVILAVLTSRSLRAPQNLFLVSLAAADILVATLIIPFSLANELLGYWYFRRTWCEVYLALDVLFCTSSIVHLCAISLDRYWAVSRALEYNSKRTPRRIKCIILTVWLIAAVISLPPLIYKGDQGPQPRGRPQCKLNQEAWYILASSIGSFFAPCLIMILVYLRIYLIAKRSNRRGPRAKGGPGQGESKQPRPDHGGALASAKLPALASVASAREVNGHSKSTGEKEEGETPEDTGTRALPPSWAALPNSGQGQKEGVCGASPEDEAEEEEEEEEEEEECEPQAVPVSPASACSPPLQQPQGSRVLATLRGQVLLGRGVGAIGGQWWRRRAQLTREKRFTFVLAVVIGVFVLCWFPFFFSYSLGAICPKHCKVPHGLFQFFFWIGYCNSSLNPVIYTIFNQDFRRAFRRILCRPWTQTAW
agonist-promoted whole cell phosphorylation of the receptor (10 µM norepinephrine): 5.84 fold increase
